# Reference: patent publication US20070134236A1 (Biogen, published 2007)
# Substitutions are numbered along the chain they refer to.
# T1: human fractalkine (human, UniProt P78423 25-100, limits assumed)
# T1 sequence (looked up): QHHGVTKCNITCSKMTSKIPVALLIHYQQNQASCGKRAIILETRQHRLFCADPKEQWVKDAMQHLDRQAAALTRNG
# T2: human DC-CK (human, UniProt P55774 21-89)
# T2 sequence (looked up): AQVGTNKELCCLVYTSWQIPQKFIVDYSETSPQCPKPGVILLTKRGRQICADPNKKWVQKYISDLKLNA
# T3: human MCP-2 (human, UniProt P80075 24-99)
# T3 construct: also called hMCP-2; huMCP-2
# T3 sequence (looked up): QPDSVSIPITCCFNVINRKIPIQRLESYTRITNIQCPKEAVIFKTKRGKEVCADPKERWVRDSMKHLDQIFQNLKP
# B1: humanized 11K2 H1-L2 (antibody, human IgG1, V domains shown)
# VH: QVQLVQSGAEVKKPGSSVKVSCKASGLNIKDTYMHWVRQAPGQGLEWIGRIDPANGNTKFDPKFQGRATITADTSTSTAYMELSSLRSEDTAVYYCARGVFGFFDYWGQGTTVTVSS
# VL: DIQMTQSPSSLSASVGDRVTITCKATEDIYNRLAWYQQKPGKAPKLLISGATSLETGVPSRFSGSGSGTDYTLTISSLQPEDFATYYCQQFWSAPYTFGGGTKVEIKR
# notes: human IgG1 kappa
# B2: humanized 11K2 H2-L2 (antibody, human IgG1, V domains shown)
# VH: B1 VH with N28T, K30S, I48M, A68V
# VL: B1 VL
# notes: human IgG1 kappa
# B3: monoclonal antibody 6D21 (antibody, mouse IgG1, V domains shown)
# VH: EVQLQQSGAELVKAGASVKLSCPASGLNIKDTYMHWVKQRPEQGLEWIGRIDPANGNTKFDPKFQGKATITADTSSNTAYLQLSSLTSEDTAVYYCARGVFGFFDYWGQGTTLTVSS
# VL: DIQMTQSSSSFSVSLGDRVTITCKATEDIYNRLAWYQQKPGSAPRLLISGATSLETGVPSRFSGSGSGKDYTLSITSLQTEDVATYYCQQFWSAPYTFGGGTKLEIK
# notes: mouse IgG1; also called 6D21.1
# B4: monoclonal antibody 4N4 (antibody, mouse IgG1, V domains shown)
# VH: B3 VH
# VL: B3 VL
# notes: mouse IgG1; also called 4N4.1
# B5: monoclonal antibody 6I5 (antibody, mouse IgG1, V domains shown)
# VH: B3 VH
# VL: B3 VL
# notes: mouse IgG1; also called 6I5.1; 615
# B6: monoclonal antibody 7H1 (antibody, mouse IgG1, V domains shown)
# VH: B3 VH
# VL: B3 VL
# notes: mouse IgG1; also called 7H1.1
# B7: monoclonal antibody 5A13 (antibody, mouse IgG1, V domains shown)
# VH: B3 VH
# VL: B3 VL
# notes: mouse IgG1; also called 5A13.1
# B8: Fab fragment of humanized 11K2 H1L1 (Fab, V domains shown)
# VH: B1 VH
# VL: B1 VL with T69K
# B9: Fab fragment of humanized 11K2 H1L2 (Fab, V domains shown)
# VH: B1 VH
# VL: B1 VL
# B10: Fab fragment of humanized 11K2 H2L1 (Fab, V domains shown)
# VH: B1 VH with N28T, K30S, I48M, A68V
# VL: B1 VL with T69K
# B11: Fab fragment of humanized 11K2 H2L2 (Fab, V domains shown)
# VH: B1 VH with N28T, K30S, I48M, A68V
# VL: B1 VL
# B12: Fab fragment of chimeric 11K2 (Fab, V domains shown)
# VH: B3 VH
# VL: DIQMTQSSSSFSVSLGDRVTITCKATEDIYNRLAWYQQKPGSAPRLLISGATSLETGVPSRFSGSGSGKDYTLSITSLQTEDVATYYCQQFWSAPYTFGGGTKLEIKR
# notes: also called Ch11K2
# Target: T4, human MCP-3 (human, UniProt P80098 24-99)
# T4 construct: also called hMCP-3
# Assay: ELISA
row,binding result,Binder
1,no binding,B1
2,no binding,B2

# Target: T1, human fractalkine
# Assay: ELISA, supernatant
# Protocol: (§1) MaxiSorp 384 well plates were coated with 15-20 μl antigen in PBS. Recombinant purified human antigens included: MCP-1, MCP-2, MCP-3, MCP-4, IL-8, eotaxin, fractalkine, Gcp-2, DC-CK (Gcp-2 and DC-CK are also chemokines). Plates were incubated with antigen for 2 hours at 37° C. or overnight at 4° C. Non-specific sites were blocked with 80 μl/well of 1% BSA/PBS for 1 hour at room temperature. Plates were washed and 15 μl of hybridoma supernatant was added to each well and incubated for 1 hour at room temperature. Plates were washed and wells were incubated with 20 μl/well of a 1:25 000 dilution of goat anti-mouse IgG peroxidase conjugate (Jackson Catalog Number 515-036-003). Plates were incubated for 1 hour at room temperature, washed, and 20 μl/well of substrate (TMB, tetramethylbenzidine, Jackson, Catalog Number 515-036-062) was added. Reaction was allowed to proceed and stopped by addition of 20 μl/well of 2M H₂SO₄. Reactive clones were picked for further analysis. Isotyping of hybridoma supernatants was performed by antigen-dependent ELISA. Briefly, wells were coated with 50 μl of human MCP-1 (5 μg/ml) for 1 hour at 37° C. Wells were washed 4 times and blocked with PBS/1% BSA. Isotyping of hybridoma supernatants was then performed using a mouse immunoglobulin screening/isotyping kit (Zymed Laboratories, San Francisco, —CA) as recommended by the manufacturer.
row,binding result,Binder
1,no binding,B3
2,no binding,B4
3,no binding,B5
4,no binding,B6
5,no binding,B7

# Target: human Gcp-2 (human, UniProt P80162 38-114, limits assumed)
# Assay: ELISA, supernatant
# Protocol: as §1
row,binding result,Binder
1,no binding,B3
2,no binding,B4
3,no binding,B5
4,no binding,B6
5,no binding,B7

# Target: T2, human DC-CK
# Assay: ELISA, supernatant
# Protocol: as §1
row,binding result,Binder
1,no binding,B3
2,no binding,B4
3,no binding,B5
4,no binding,B6
5,no binding,B7

# Target: T5, human MCP-4 (human, UniProt Q99616 24-98, limits assumed)
# T5 construct: also called hMCP-4
# Assay: ELISA, purified mAb
# Protocol: (§2) ELISA specificity assays were performed using purified monoclonal antibodies to confirm the binding specificities of the supernatant MCP-specific monoclonal antibodies described above. Antibodies were purified by Protein A affinity column chromatography, according to standard methods known in the art.
# (§3) ELISA was performed as previously described in Example 1. Briefly, MaxiSorp 384 well plates were coated with 15-20 μl antigen in PBS. Recombinant purified human antigens included: MCP-1, MCP-2, MCP-3, MCP-4, IL-8, eotaxin, murine MCP-1 (JE), murine MCP-3, murine MCP-5, and rat MCP-1. All antigens, including MCP-3, were immobilized. Plates were washed and purified monoclonal antibody (10 μg/ml) was added to each well and incubated for 1 hour at room temperature. Plates were washed and wells were incubated with 20 μl/well of a 1:25,000 dilution of goat anti-mouse IgG peroxidase conjugate (Jackson Catalog Number 515-036-003). Plates were incubated for 1 hour at room temperature, washed, and 20 μl/well of substrate (, tetramethylbenzidine, Jackson, Catalog Number 515-036-062) was added. Reaction was allowed to proceed and stopped by addition of 20 μl/well of 2M H₂SO₄. Antibodies 1A1 bound specifically to hMCP-1, hMCP-2, hMCP-3, and mMCP-1. Antibodies 11K2, 4N4, 5A13, 6D21, 615, and 7H1 bound specifically to hMCP-1, hMCP-2, hMCP-3, mMCP-1, mMCP-3, and mMCP-5.
row,binding result,Binder
1,no binding (tested: 10 µg/ml),B3
2,no binding (tested: 10 µg/ml),B4
3,no binding (tested: 10 µg/ml),B5
4,no binding (tested: 10 µg/ml),B6
5,no binding (tested: 10 µg/ml),B7

# Target: T6, human IL-8 (human, UniProt P10145 28-99, limits assumed)
# T6 construct: also called hIL8
# Assay: ELISA, purified mAb
# Protocol: as §2, §3
row,binding result,Binder
1,no binding (tested: 10 µg/ml),B3
2,no binding (tested: 10 µg/ml),B4
3,no binding (tested: 10 µg/ml),B5
4,no binding (tested: 10 µg/ml),B6
5,no binding (tested: 10 µg/ml),B7

# Target: T7, human eotaxin (human, UniProt P51671 24-97)
# T7 construct: also called hEotaxin
# Assay: ELISA, purified mAb
# Protocol: as §2, §3
row,binding result,Binder
1,no binding (tested: 10 µg/ml),B3
2,no binding (tested: 10 µg/ml),B4
3,no binding (tested: 10 µg/ml),B5
4,no binding (tested: 10 µg/ml),B6
5,no binding (tested: 10 µg/ml),B7

# Target: T8, human MCP-1 (human, UniProt P13500 24-99)
# T8 construct: also called hMCP-1; huMCP-1
# Assay: KinExA, in solution, Fab
# Protocol: (§4) 1 ml of MCP-1 at a concentration of 10 μg/ml in NaHCO₃ was added to an amount of beads equivalent to 1 ml of the original slurry. The beads were rocked overnight at 4° C. Beads were spun down and washed once with 1M Tris, pH 8.0, then resuspended in 1M Tris pH 8.0 with 1% BSA, 0.02% azide. The beads were rocked at room temperature for one hour then stored at 4° C. in this buffer for the duration of the experiments.
# (§5) The KinExA 3000 measures protein-protein interaction in solution, and is ideally suited for measuring affinities of antibodies to antigens. In the typical experiment, antigen (MCP) is immobilized on a bead, antibody is flowed over a column of these beads at a given concentration, and the antibody that binds to the beads is detected using a fluorescent secondary. Antibody at a fixed concentration is then incubated with different concentrations of antigen in solution and the amount of free antibody is measured by flowing the mixture over the bead column quickly enough that no re-equilibration occurs between solution and solid phase. The amount of antibody remaining free is plotted against the concentration of antigen added and the data are fit to a quadratic equation to determine the affinity of the interaction in solution.
# (§6) In these experiments, the only difference to the typical experiment described above is that instead of using intact antibody, a Fab fragment of 11K2 was used. Earlier KimExA experiments using the intact murine 11K2 mAb binding to MCP-1 and MCP-2 gave biphasic curves that the software could not interpret. This may be due to these proteins acting as dimers, so to eliminate the dimer/dimer interaction we generated Fab fragments. The binding of the 11K2 Fab fragments to MCP-1 and MCP-2 produced curves that the KinExA software could fit.
row,Kd,Binder
1,0.0364 nM,B8
2,0.0623 nM,B9
3,0.064 nM,B10
4,0.0775 nM,B11
5,0.0196 nM,B12

# Target: T3, human MCP-2
# Assay: KinExA, in solution, Fab
# Protocol: as §4, §5, §6
row,Kd,Binder
1,0.725 nM,B8
2,0.712 nM,B9
3,0.94 nM,B10
4,3.2 nM,B11
5,0.226 nM,B12

# Target: T3, human MCP-2
# Assay: ELISA on immobilised MCP-2, absorbance 450 nm
row,EC50 (read off the curve),Binder
1,~0.3 µg/mL,B1
2,~0.3 µg/mL,B2

# Target: T8, human MCP-1
# Assay: ELISA on plate-coated human MCP-1, anti-human IgG-HRP; y axis unlabelled, OD 405 nm per paragraph 382
# Protocol: Binding specificities of chimeric 11K2 and the four versions of humanized 11K2 (H1-L1, H1-L2, H2-L1, and H2-L2) were determined by ELISA, according to the protocol described in Example 1.
# ELISA plates (Corning, Inc. Cat#3369) were coated with 50 ng MCP-1 per well overnight at 4° C. Plates were washed then blocked with PBS/5% milk for 1.5 hrs at 25° C. Another wash was followed by incubation with the 11K2 mAbs (or 3G9 isotype control) at the concentrations indicated for 1 hr at 25° C. After washing, the plates were incubated with secondary antibody (anti-human IgG-HRP, Jackson Immunoresearch Cat#109-036-088) for 1 hr at 25° C. Plates were then washed and developed using the ABTS Peroxidase Substrate Kit (Vector Laboratories Cat#SK-4500). OD (405 nm) values were plotted as a function of 11K2 mAb concentration.
row,EC50 (read off the curve),Binder
1,~0.02 µg/mL,B1
2,~0.02 µg/mL,B2
